These results are taken from PMC11148769 (Cell Reports Medicine, 2024).

This experiment has as its target T1, BA.2.12.1 S trimer (SARS-CoV-2, Omicron BA.2.12.1, strain).
T1 construct: also called BA.2.12.1 spike
The experiment can be described thus: cryo-EM structure. To be noted: both partners purified.

B1: XBB-4 Fab (Fab, V domains shown)
VH: EVQLVQSGGGLVKPGGSLRLSCAASGFSFTNAWMNWVRQAPGKGLEWVGRIKSKADGGTTDYAAPVKGKFTISRDDSKNTLYLQMNSLKTEDTAIYYCTSDVYDFSTGFGQRDDFDYWGQGTLVTVSS
VL: DIVMTQSPSSLSASVGDRVTITCRASQSISYFLNWYQQKPGKAPKLLISAASSLQSGVPSRFSGSGSGTDFTLTISSLQPEDFATYYCQQSYSSLITFGGGTKVEIK
Consider B1, for which the stoichiometry N (as a rule, the number of molecules, sites or subunits per partner or assembly) is 3 Fabs per S trimer.
